Patent US20220089647A1 (FUJIFILM, published 2022)
Starred links: 1 amine or outer side, 2 acyl side, 3 side chain; linkers in the order of their positions; H or OH if unused. Positions of bridges follow the written chain, without caps; N, C: chain ends. Non-standard residues stand in square brackets, D forms with d. Primed or numbered codes have the meaning given here. No end group written: not given here. Dab(acetyl)″ = 2-amino-4-(acetylamino)butanoic acid, acetyl CH3 carbon bonded to the S of Hcy (S-CH2-C(=O)-NH-), O=C(C[*:3])NCC[C@H](N[*:1])C(=O)[*:2]; Dab(acetyl) = 2-amino-4-acetylamino-butanoic acid residue (N-γ-acetyl-diaminobutyric acid), CC(=O)NCC[C@H](N[*:1])C(=O)[*:2]; COCH2 = acetyl group that carries the bridge; hCys = N[C@@H](CCS)C(=O)O; Dab = NCC[C@H](N)C(=O)O

Tests used:
[1] = molecular target: T1, human integrin αvβ5 (human, UniProt P06756 31-992; P18084 24-719, limits assumed); assay: SPR, Biacore 3000, peptide immobilised; B = KD more than 50 nM and 100 nM or less
T1 construct: Heterodimer flowed as analyte at 30, 100, 300 and 1,000 nM in HEPES buffer with 5 mM MgCl2
Experimental: (§1) However, only for the cyclic peptides 125, 126, and 127, in which the number of lysine residues having an amino group as the immobilizing functional group was zero, the amount of the sample solution to be supplied to the sensor chip was set to 500 μL instead of 20 μL. Further, 70 μL of the mixed aqueous solution of 0.2 M EDC and 0.04 M NHS was added to another flow channel of the same sensor chip without immobilizing the sample, and then blocking treatment and washing treatment were carried out. Hereinafter, the obtained immobilization-treated sensor chip is referred to as an “immobilization-treated sensor chip A”.
(§2) After adding human integrin αvβ5 for 10 minutes at 25° C., which was diluted to 30 nM using a HEPES buffer solution to which magnesium chloride was added to 5 mM, in each flow channel of the immobilization-treated sensor chip A prepared in (1) above, the same HEPES buffer solution (containing 5 mM magnesium chloride) was allowed to flow as a running buffer for 30 minutes, and measurement was carried out with Biacore 3000. Then, a regeneration treatment of removing human integrin αvβ5 was carried out by allowing a 0.5 M EDTA aqueous solution to flow through each flow channel for 10 minutes. Further, the above-described measurement process consisting of adding integrin for 10 minutes, allowing a running buffer to flow for 30 minutes, carrying out measurement with Biacore 3000, and carrying out regeneration treatment with 0.5 M EDTA aqueous solution was carried out in the same manner for 100 nM human integrin αvβ5, 300 nM human integrin αvβ5, and 1,000 nM human integrin αvβ5. Dissociation constant between the cyclic peptide and human integrin αvβ5 was calculated from the difference between the value measured by Biacore 3000 in the flow channel immobilized with the cyclic peptide and the value measured by Biacore 3000 in the flow channel unimmobilized with the cyclic peptide, in a case where each concentration of human integrin αvβ5 was allowed to flow, and the integrin binding property was evaluated according to the following evaluation standards. It is preferable that the evaluation result satisfies the evaluation standard A, B, or C.

[2] = molecular target: T1, human integrin αvβ5; assay: SPR, Biacore 3000, peptide immobilised; A = KD 50 nM or less
Experimental: as §1, §2

T1 sequence (P06756 31-992 limits assumed, chain 1 of 2): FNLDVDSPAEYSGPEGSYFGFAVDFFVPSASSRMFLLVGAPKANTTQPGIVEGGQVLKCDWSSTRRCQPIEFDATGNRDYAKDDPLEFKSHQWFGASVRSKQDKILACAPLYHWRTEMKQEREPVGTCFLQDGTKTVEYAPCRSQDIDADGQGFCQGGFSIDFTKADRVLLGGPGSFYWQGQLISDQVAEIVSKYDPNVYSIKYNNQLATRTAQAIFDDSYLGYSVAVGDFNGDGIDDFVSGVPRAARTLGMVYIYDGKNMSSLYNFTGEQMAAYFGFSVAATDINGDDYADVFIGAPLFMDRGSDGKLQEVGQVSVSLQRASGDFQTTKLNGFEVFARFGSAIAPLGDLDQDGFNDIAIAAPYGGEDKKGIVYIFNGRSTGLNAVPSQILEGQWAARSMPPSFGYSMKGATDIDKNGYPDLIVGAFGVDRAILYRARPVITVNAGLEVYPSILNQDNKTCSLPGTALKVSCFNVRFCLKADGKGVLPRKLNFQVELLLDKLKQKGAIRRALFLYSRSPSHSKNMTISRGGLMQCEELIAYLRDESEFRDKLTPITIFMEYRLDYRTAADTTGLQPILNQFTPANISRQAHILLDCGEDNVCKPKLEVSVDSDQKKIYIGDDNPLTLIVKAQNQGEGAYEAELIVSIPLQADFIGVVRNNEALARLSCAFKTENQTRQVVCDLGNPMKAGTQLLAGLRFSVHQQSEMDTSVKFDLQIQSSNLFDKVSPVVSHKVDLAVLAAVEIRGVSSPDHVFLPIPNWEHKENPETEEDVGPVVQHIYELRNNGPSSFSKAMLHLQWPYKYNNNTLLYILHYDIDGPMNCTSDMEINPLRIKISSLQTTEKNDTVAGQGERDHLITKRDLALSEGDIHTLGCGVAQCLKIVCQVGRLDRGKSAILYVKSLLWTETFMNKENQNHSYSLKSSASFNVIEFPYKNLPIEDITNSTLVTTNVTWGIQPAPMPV
T1 sequence (P18084 24-719 limits assumed, chain 2 of 2): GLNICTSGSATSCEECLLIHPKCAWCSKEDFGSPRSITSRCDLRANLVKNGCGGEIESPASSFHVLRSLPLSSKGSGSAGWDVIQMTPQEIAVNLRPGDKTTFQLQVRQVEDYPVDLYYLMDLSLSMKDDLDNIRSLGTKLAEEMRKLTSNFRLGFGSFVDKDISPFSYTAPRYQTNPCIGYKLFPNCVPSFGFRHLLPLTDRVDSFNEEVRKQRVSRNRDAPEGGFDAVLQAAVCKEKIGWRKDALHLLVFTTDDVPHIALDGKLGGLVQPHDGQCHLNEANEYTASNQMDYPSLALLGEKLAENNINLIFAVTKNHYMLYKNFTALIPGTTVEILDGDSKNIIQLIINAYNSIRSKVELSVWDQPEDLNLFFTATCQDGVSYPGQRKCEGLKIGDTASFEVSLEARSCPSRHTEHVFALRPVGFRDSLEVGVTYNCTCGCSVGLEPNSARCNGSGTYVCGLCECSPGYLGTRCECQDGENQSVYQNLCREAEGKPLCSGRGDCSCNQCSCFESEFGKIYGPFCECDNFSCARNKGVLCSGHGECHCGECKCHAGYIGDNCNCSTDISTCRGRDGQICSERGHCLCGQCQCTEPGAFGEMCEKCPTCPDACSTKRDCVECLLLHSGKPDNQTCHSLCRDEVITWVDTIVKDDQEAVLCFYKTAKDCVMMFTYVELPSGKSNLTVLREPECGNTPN

KKK[hCys]IPRGDNF[Dab(acetyl)″]A (thioether 4-12) [Cyclic peptide 10]
dissociation constant (KD) [1]: 50 to 100 nM

B1: Cyclic peptide 129 (peptide)
peptide: KKKGXIPRGDTFRXA
modifications: not fully specified; KKKG-(Pen)-IPRGDTFR(Dab(acetyl))A; thioether bond Pen-Dab(acetyl)
dissociation constant [1]: 50 to 100 nM

B2: Cyclic peptide 133 (peptide)
peptide: KKKGXIPRGDTFRXA
modifications: not fully specified; KKKG(Dab(acetyl))IPRGDTFR-(Pen)-A; thioether bond Dab(acetyl)-Pen
dissociation constant [1]: 50 to 100 nM

KKKA[hCys]EPRGDNYR[Dab(acetyl)″]D (thioether 5-14) [Cyclic peptide 42]
dissociation constant (KD) [1]: 50 to 100 nM

KKKA[hCys]EPRGDNYR[Dab(acetyl)″]G (thioether 5-14) [Cyclic peptide 40]
dissociation constant (KD) [1]: 50 to 100 nM

KKKA[hCys]EPRGDNYR[Dab(acetyl)″]A (thioether 5-14) [Cyclic peptide 41]
dissociation constant (KD) [1]: 50 to 100 nM

KKKA[hCys]EPRGDNYR[Dab(acetyl)″]E (thioether 5-14) [Cyclic peptide 43]
dissociation constant (KD) [1]: 50 to 100 nM

KKKD[hCys]EPRGDNYR[Dab](COCH2)D (thioether 5-14) [Cyclic peptide 38]
dissociation constant (KD) [1]: 50 to 100 nM

KKKA[hCys]EPRGDNYE[Dab](COCH2)D (thioether 5-14) [Cyclic peptide 36]
dissociation constant (KD) [1]: 50 to 100 nM

KKKG[hCys]EPRGDNYR[Dab](COCH2)D (thioether 5-14) [Cyclic peptide 37]
dissociation constant (KD) [1]: 50 to 100 nM

KKKA[hCys]VPRGDNYR[Dab](COCH2)D (thioether 5-14) [Cyclic peptide 29]
dissociation constant (KD) [1]: 50 to 100 nM

KKK[hCys]AIPRGDNFR[Dab(acetyl)]A (thioether 4-14) [Cyclic peptide 15]
dissociation constant (KD) [1]: 50 to 100 nM

B3: Cyclic peptide 7 (peptide)
peptide: KKKGXIPRGDNFRX
modifications: not fully specified; KKKG-(Hcy)-IPRGDNFR(Dab(acetyl)); thioether bond Hcy-Dab(acetyl)
dissociation constant (KD) [2]: ≤ 50 nM

KKKG[hCys]IPRGDTFR[Dab(acetyl)″] (thioether 5-14) [Cyclic peptide 59]
dissociation constant (KD) [2]: ≤ 50 nM

B4: Cyclic peptide 138 (peptide)
peptide: KKKGXIPRGDTFRCA
modifications: not fully specified; KKKG(Dab(acetyl))IPRGDTFR(C)A; thioether bond Dab(acetyl)-Cys
dissociation constant [1]: 50 to 100 nM

KKK[hCys]DPRGDNFR[Dab](COCH2)A (thioether 4-13) [Cyclic peptide 22]
dissociation constant (KD) [1]: 50 to 100 nM

KKK[hCys]IPRGDSFR[Dab](COCH2)A (thioether 4-13) [Cyclic peptide 25]
dissociation constant (KD) [1]: 50 to 100 nM

KKK[hCys]IPRGDNYR[Dab](COCH2)A (thioether 4-13) [Cyclic peptide 26]
dissociation constant (KD) [1]: 50 to 100 nM

KKKG[hCys]LPRGDSFR[Dab](COCH2)A (thioether 5-14) [Cyclic peptide 28]
dissociation constant (KD) [1]: 50 to 100 nM

B5: Cyclic peptide 137 (peptide)
peptide: KKKAXIPRGDSFAXA
modifications: not fully specified; KKKA(Dab(acetyl))IPRGDSFA-(Pen)-A; thioether bond Dab(acetyl)-Pen
dissociation constant [1]: 50 to 100 nM

B6: Cyclic peptide 82 (peptide)
peptide: KKKAXIPRGDTFTXA
modifications: not fully specified; KKKA-(Hcy)-IPRGDTFT(Dab(acetyl))A; thioether bond Hcy-Dab(acetyl)
dissociation constant [1]: 50 to 100 nM

B7: Cyclic peptide 72 (peptide)
peptide: KKKGXIPRGDSFRXA
modifications: not fully specified; KKKG-(Hcy)-IPRGDSFR(Dab(acetyl))A; thioether bond Hcy-Dab(acetyl)
dissociation constant [1]: 50 to 100 nM

B8: Cyclic peptide 80 (peptide)
peptide: KKKAXIPRGDTPRXA
modifications: not fully specified; KKKA-(Hcy)-IPRGDTPR(Dab(acetyl))A; thioether bond Hcy-Dab(acetyl)
dissociation constant [1]: 50 to 100 nM

B9: Cyclic peptide 79 (peptide)
peptide: KKKAXIPRGDAFRXA
modifications: not fully specified; KKKA-(Hcy)-IPRGDAFR(Dab(acetyl))A; thioether bond Hcy-Dab(acetyl)
dissociation constant [1]: 50 to 100 nM

B10: Cyclic peptide 76 (peptide)
peptide: KKKAXITRGDTFRXA
modifications: not fully specified; KKKA-(Hcy)-ITRGDTFR(Dab(acetyl))A; thioether bond Hcy-Dab(acetyl)
dissociation constant [1]: 50 to 100 nM

B11: Cyclic peptide 124 (peptide)
peptide: KKKAXIPRGDSFAXA
modifications: not fully specified; KKKA(Dab(acetyl))IPRGDSFA-(Hcy)-A; thioether bond Dab(acetyl)-Hcy
dissociation constant [1]: 50 to 100 nM

B12: Cyclic peptide 81 (peptide)
peptide: KKKAXIPRGDTYRXA
modifications: not fully specified; KKKA-(Hcy)-IPRGDTYR(Dab(acetyl))A; thioether bond Hcy-Dab(acetyl)
dissociation constant [1]: 50 to 100 nM

KKK[hCys]AAIPRGDNFR[Dab](COCH2)A (thioether 4-15) [Cyclic peptide 18]
dissociation constant (KD) [1]: 50 to 100 nM

KKK[hCys]AIPRGDNFRA[Dab](COCH2)A (thioether 4-15) [Cyclic peptide 17]
dissociation constant (KD) [1]: 50 to 100 nM

KKKG[hCys]AIPRGDNFRA[Dab](COCH2)A (thioether 5-16) [Cyclic peptide 20]
dissociation constant (KD) [1]: 50 to 100 nM

KKKA[hCys]VTRGDVFT[Dab(acetyl)″]A (thioether 5-14) [Cyclic peptide 113]
dissociation constant [1]: 50 to 100 nM

KKK[hCys]EPRGDNYR[Dab(acetyl)″] (thioether 4-13) [Cyclic peptide 44]
dissociation constant (KD) [1]: 50 to 100 nM

B13: Cyclic peptide 68 (peptide)
peptide: KKKGXXPRGDTFRXA
modifications: not fully specified; KKKG-(Hcy)-(HmY)-PRGDTFR(Dab(acetyl))A; HmY = homotyrosine; thioether bond Hcy-Dab(acetyl)
dissociation constant [2]: ≤ 50 nM

KKK[hCys]IPRGDVF[Dab(acetyl)″] (thioether 4-12) [Cyclic peptide 65]
dissociation constant [1]: 50 to 100 nM

KKKA[hCys]EPRGDNYR[Dab(acetyl)″] (thioether 5-14) [Cyclic peptide 45]
dissociation constant (KD) [1]: 50 to 100 nM

KKK[hCys]IPRGDNFRA[Dab](COCH2)A (thioether 4-14) [Cyclic peptide 16]
dissociation constant (KD) [1]: 50 to 100 nM

B14: Cyclic peptide 131 (peptide)
peptide: KKKGXIPRGDTFRXA
modifications: not fully specified; KKKG-(Pen)-IPRGDTFR(Lys(acetyl))A; thioether bond Pen-Lys(acetyl)
dissociation constant [1]: 50 to 100 nM

B15: Cyclic peptide 135 (peptide)
peptide: KKKGXIPRGDTFRXA
modifications: not fully specified; KKKG(Lys(acetyl))IPRGDTFR-(Pen)-A; thioether bond Lys(acetyl)-Pen
dissociation constant [1]: 50 to 100 nM

B16: Cyclic peptide 12 (peptide)
peptide: KKKXIPRGDNFRX
modifications: not fully specified; KKK(Dap(acetyl))IPRGDNFR-(Hcy); thioether bond Dap(acetyl)-Hcy
dissociation constant (KD) [1]: 50 to 100 nM
